# Laboratory results published in patent US20200332017A1 (SALUBRIS CHENGDU BIOTECH, published 2020).
# What was measured:
# [1] = biological target: T1, human CD40-Fc protein (amino acid residue 21-193 of SEQ ID NO: 67 linked to N-terminus of amino acid residue … (human, biotin-labeled in the capture ELISA and in the benchmark blocking ELISA; unlabeled when coated in the ligand blocking ELISA); assay: competitive ELISA; coated human CD40-Fc, competitor biotin human CD40L-his
# T1 construct: also called biotin-labeled human CD40-Fc; human CD40-Fc-biotin
# Protocol: (§1) Serially diluted the mouse anti-CD40 antibodies of the present invention or the controls (starting at 200 nM with a four-fold serial dilution) in 2.5% w/v non-fatty milk in PBST were prepared to the plates and incubated with the human CD40-Fc proteins at room temperature for 40 minutes. […] Plates were washed again. 100 μl/well of streptavidin conjugated HRP was added and incubated for 40 minutes at 37° C. Plates were washed again using wash buffer. Finally, TMB was added and the reaction was stopped using 1M H₂SO₄, and the absorbance was read at 450 nm. Data were analyzed using Graphpad Prism software and IC₅₀ values were reported.
# [2] = biological target: T2, cynomolgus monkey CD40-his protein (Acro biosystems, Cat # CD0-052H6) (cynomolgus monkey, UniProt G7PG38 21-193); assay: SPR, Biacore; cynomolgus CD40-his
# T2 construct: Bought reagent; also called Cynomolgus CD40-his
# Text: Briefly, goat anti-mouse IgG (GE healthcare, Cat # BR100838, Mouse Antibody Capture Kit) was covalently linked to a CM5 or a Protein G chip (carboxy methyl dextran coated chip) via primary amines, using a standard amine coupling kit provided by Biacore (GE healthcare, Pittsburgh, Pa., USA). Un-reacted moieties on the biosensor surface were blocked with ethanolamine. […] Then, human CD40-his (Acro biosystems, Cat # CD0-H5228) or cynomolgus monkey CD40-his protein (Acro biosystems, Cat # CD0-052H6) in HBS EP buffer (provided by Biacore) was flowed onto the chip at a flow rate of 30 μL/min. The antigen-antibody association kinetics was followed for 2 minutes and the dissociation kinetics was followed for 10 minutes. The association and dissociation curves were fit to a 1:1 Langmuir binding model using BIA evaluation software.
# [3] = biological target: T1, human CD40-Fc protein (amino acid …); assay: competitive ELISA; coated human CD40-Fc, competitor biotin human CD40L-his; remark: listed apart in the source
# Protocol: Briefly, human CD40-Fc proteins (amino acid residue 21-193 of SEQ ID NO: 67 linked to N-terminus of amino acid residue 99-330 of SEQ ID NO.: 24) were coated on 96-well micro plates at 2 μg/mL in coating buffer (PBS) and incubated overnight at 4° C. The next day, plates were washed with wash buffer (PBS+0.05% Tween-20, PBST), and blocked with 5% w/v non-fatty milk in PBST for 2 hours at 37° C. Plates were then washed again using wash buffer.
# as §1
# (§2) In the capture ELISA test, a mouse control antibody targeting a protein other than CD40 was used.
# [4] = biological target: full length human CD40 (uniprot # P25942-1) on the membrane of 293T-CD40 cells (human, UniProt P25942 21-277); assay: cell-based or functional assay
# [5] = biological target: T1, human CD40-Fc protein (amino acid …); assay: capture ELISA, biotin human CD40-Fc; mAb at 10000 ng/mL
# Protocol: (§3) Plates were washed 4 times with wash buffer (PBS+0.05% Tween-20, PBST) and then blocked with 200 μl/well blocking buffer (5% w/v non-fatty milk in PBST) for 2 hours at 37° C. […] After a final wash, plates were incubated with 100 μl/well ELISA substrate TMB (Innoreagents, Cat # TMB-S-002). The reaction was stopped in 15 minutes at 25° C. with 50 μl/well 1M H₂SO₄, and the absorbance was read at 450 nm and plotted against antibody concentration. Data were analyzed using Graphpad Prism software and EC₅₀ values were reported.
# [6] = biological target: T1, human CD40-Fc protein (amino acid …); assay: capture ELISA, biotin human CD40-Fc; mAb at 400 ng/mL
# Protocol: as §3
# [7] = biological target: T1, human CD40-Fc protein (amino acid …); assay: competitive ELISA; biotin human CD40-Fc in solution, competitor coated BM2
# Protocol: (§4) The ability of the mouse anti-CD40 antibodies of the present invention to block the binding of the Benchmark to human CD40 was measured using a competitive ELISA assay. […] The next day, plates were washed with wash buffer, and blocked with 5% w/v non-fatty milk in PBST for 2 hours at 37° C. Plates were then washed again using wash buffer. […] After incubation at 37° C. for 40 minutes, plates were washed 4 times using wash buffer. Then streptavidin conjugated HRP was added and incubated for 40 minutes at 37° C. to detect biotin-labeled human CD40-Fc bound to plates. Plates were washed again using wash buffer. Finally, TMB was added and the reaction was stopped using 1M H₂SO₄, and the absorbance was read at 450 nm. Data were analyzed using Graphpad Prism software and IC₅₀ values were reported.
# as §2
# [8] = biological target: T1, human CD40-Fc protein (amino acid …); assay: as above; remark: listed apart in the source
# Protocol: as §4
# [9] = biological target: T1, human CD40-Fc protein (amino acid …); assay: capture ELISA, biotin human CD40-Fc; mAb at 2000 ng/mL
# Protocol: as §3
# [10] = biological target: T1, human CD40-Fc protein (amino acid …); assay: capture ELISA, biotin human CD40-Fc; mAb at 16 ng/mL
# Protocol: as §3
IC50 [1] [nM],Kd [2] [nM],IC50 [3] [nM],"cell based functional assay (EC50, nM) [4] [nM]",absorbance at 450 nm [5] [OD450],absorbance at 450 nm [6] [OD450],IC50 [7] [nM],IC50 [8] [nM],absorbance at 450 nm [9] [OD450],absorbance at 450 nm [10] [OD450],Binder
5.4,2.35,5.4,2.51,1.81,1.69,0.461,0.461,1.75,0.764,"mouse anti-CD40 monoclonal antibody C1C1 (antibody, V domains shown, those are used here for the chimeric antibody only; also called Mouse C1C1; mouse C1C1) VH: EVKLVESGGGLVKPGASLKLSCAASGFTFSNYGMSWVRQNSDKRLEWVASISSGGDDTYYPDNVKGRCTISRENAKNTLYLEMSSLKTEDTALYYCTRAGGKAMDYWGQGTSVTVST VL: DIVLTQSPATLSVIPGNSVSLSCRASQSIRDNLHWYQQKSHESPRLLINYASQSISGIPSRFSGSGSGTDFTLTINSVETEDFGIYFCQQFNSWPLTFGGGTKLELK"
4.83,2.34,4.83,3.28,1.96,1.79,0.13,0.126,1.83,0.329,"chimeric antibody C1C1 (antibody, human IgG1, kappa, V domains shown, also called chC1C1; chimeric C1C1) VH: EVKLVESGGGLVKPGASLKLSCAASGFTFSNYGMSWVRQNSDKRLEWVASISSGGDDTYYPDNVKGRCTISRENAKNTLYLEMSSLKTEDTALYYCTRAGGKAMDYWGQGTSVTVST VL: DIVLTQSPATLSVIPGNSVSLSCRASQSIRDNLHWYQQKSHESPRLLINYASQSISGIPSRFSGSGSGTDFTLTINSVETEDFGIYFCQQFNSWPLTFGGGTKLELKR"
